# Test results taken from the nanobody polyreactivity screen of Harvey et al. (2022).
# Experiment: yeast display, Sf9 membrane polyspecificity reagent, FACS + sequencing; frameworks hold sequencing errors
# Summary of the method: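 A nanobody's polyreactivity label depends on the gate it was sorted from. Yeast display cells were stained with 10% biotinylated, detergent-solubilized Sf9 membrane reagent for 1 hour at 4 °C, enriched on streptavidin microbeads and sorted by FACS. The low and high (top ~1%) gates were set on anti-HA fluorescence for expression and streptavidin fluorescence for reagent binding.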
row,Sequence,polyreactivity (PSR sort gate)
1,QVQLVDSGGGLVQAGGSLRLSCAASGSIFTAYAMGWYRQAPGKERELVAAITSGGSTNYADSVKGRFTISRDNAKNTVYLQMNSLKPEDTAVYYCNADDYWLDSWSSVLWYDYWGQGTQVTVSS,low polyreactivity
2,QVQLVDSGGGLVQAGGSLRLSCAASGSIFVFYDMGWYSQAPGKEREMVATISSGGGGTYYTDSVKGRFTISRDNAKNTVYLQMNSLKPEDTAVYYCAAEGDKYGKGYGYWGQGTQVTVSS,low polyreactivity
3,QVQLVDSGGGLVQAGGSLRLSCAASGSIFVHYAMGWSRQAPGKEWELVAAITSSGGRTYYADSVKGRFTISRDNAKKTVYLQMNSLKPEDTEVYYCAAKQGRYNIYSNYDYWGQGTQVTVSS,high polyreactivity
4,QVQLVDSGGGLVQAGGSLRLSCAASGSIFYAYAMGWYRQATGKERQLLAVISRGGITNYSDSVKGRFTISRDNAKNTFFLQMNSLNPEDTAVYYCAAATSAWGYLRRYGYWGQGTQVTVSS,low polyreactivity
5,QVQLVDSGGGLVQAGGSLRLSCAASGSIFYNYVMGWCRQAPGKEREMVAAISSGGGTNYADSVKGRFTISRDNAKYTVYLQMNSLKPEDTAVYYCAKASAYGLANDYDYWGQGTQVTVSS,low polyreactivity
6,QVQLVDSGGGLVQAGGSLRLSCAASGSIIKRKAMGWYRQAPGKERELVASISSGGSTHYADSVKGRFTISRDNAKNTVYLQMNSLKPEDTAVYYCAATSIRWSVGSFRRDYWGQGTQVTVSS,low polyreactivity
7,QVQLVDSGGGLVQAGGSLRLSCAASGSISSFYAMGWYRQAPGKERELVAGITSGGSTNYADSVKGRFTISRDNAKNTVYLQMNSLKPEDTAVYYCAAVYKGAGTHFDVFVKEFDYWGQGTQVTVSS,low polyreactivity
8,QVQLVDSGGGLVQAGGSLRLSCAASGSISYYNAMGWYRQAPGKERELVATITDSGGSTYYADSVKGRFTISRDNAKNTVYLQMNSLKPEDTAVYYCAVDYSEWYSIYDYWGQGTQVTVSS,low polyreactivity
9,QVQLVDSGGGLVQAGGSLRLSCAASGSIVYYNDMGWYRQAPGKEREVVATITSGGTTYYADSVKGRFTISRDNAKNSVYVQMNSLKGEDTAVYYCAATSYPGFDDWGQGSQVTVSS,low polyreactivity
10,QVQLVDSGGGLVQAGGSLRLSCAASGSTFALYAMGWYRQAPGKERELVAAITWSGTGTYYADSVKGRFTISRDNAKNTVYLQMNSLKPEDTAVYSCNAEYWWWGLGNDYWGQGTQVTVSS,low polyreactivity
11,QVQLVDSGGGLVQAGGSLRLSCAASGSTFDTNVMGWYRQAPGKERELVAAIDVSGGSTYYADSVKGRFTISRDNAKNTVYLQMNSLKPVDTAVYYCAAEDGQYGMDYWGQGTQVSVSS,low polyreactivity
12,QVQLVDSGGGLVQAGGSLRLSCAASGSTFISYAMGWYRQAPGKERELVAAISRRGDSTYYADSVKGRFTISRDNAKNNVYLEMNSLKPEDTAVYYCAADVSGDKGSIHMNYWGQGTLVTVSS,low polyreactivity
13,QVQLVDSGGGLVQAGGSLRLSCAASGSTFPIYAMEWYRQAPGKERELVAAISSGGSTYYADSVKGRFTISRDNAKNTVYLQMNSLKPEDTAVYYCAADYSQPNFEYYYWGQGTQVTVSS,low polyreactivity
14,QVQLVDSGGGLVQAGGSLRLSCAASGSTFRRNALGWYRQAPGKERELVAAITRSGGRTYYADSVKGRFTISRDNAKNTVYLQMNSLKPEDTAVYYCAARHAPTRYGYWGQGTQVTVSS,high polyreactivity
15,QVQLVDSGGGLVQAGGSLRLSCAASGSTFSHYTMGWYRQAPGKERELVAAINYGGASTYYADSVKGRFTISRDNAKNTVYLQMNSLKPEDTAVYYCAAANRPSEQDNYWGQGTQVTVSS,low polyreactivity
16,QVQLVDSGGGLVQAGGSLRLSCAASGSTFTRNVMGWYRQAPGKERELVASISRSGGRTYYADSVKGRFTISRDNAMNTVYLQMNSMKPDDTAVYYCAAKYFYYLDPYDYWGQGTHVTVSS,high polyreactivity
17,QVQLVDSGGGLVQAGGSLRLSCAASGSTFVKYTMGWYRQAPGKERELVAVISRSGGSTYYADSVKGRFTISRDNAKNTVYLQMNSLKPEDTAVYYCAAHFSRDFDYWGLGTQVTVSS,high polyreactivity
18,QVQLVDSGGGLVQAGGSLRLSCAASGSTFYAYVMGWYRQAPGKERELVAGITWSGGSTYYADSVKGRFTISRDNAKNTVYLQMNSLKPEDTAVYYCAADYYNTYGYDYWGQGTQVTVSS,low polyreactivity
19,QVQLVDSGGGLVQAGGSLRLSCAASGSTFYEYAMGWYRQPPGKERELVAAITSGGSTYYADSVKGRFTISRDNAKNTVYLQMNSLKPEDTAVYYCAADPRIRRGDRSTHGYDYWGQGTQVTVSS,low polyreactivity
20,QVQLVDSGGGLVQAGGSLRLSCAASGSTFYFKAMGWYRQAPGKEREFVATIRSGGSTYYADSVKGRFTISRDYAKNSVYLQMNSLTPEDTAVYYCAADLVDSYQWSIFLYGYWGQGTQVTVSW,low polyreactivity
21,QVQLVDSGGGLVQAGGSLRLSCAASGSTLAYYTMGWYRQAPGKERELVAAITSGGFTHYADSVKGRFTISRDNAKNTVYLQMNSLKPEDTAVYYCAAKRGPVYYGYYYLGQGTQVTVSS,high polyreactivity

row,Sequence,polyreactivity (PSR sort gate)
1,QVQLVDSGGGLVQAGGSLRLSCAASGSTVTSYAMGWYRQAPGKERELVAAITYGSGTTYADSVKGRFTISRDNAKNTVYLQMNSLKPEDTAVYYCAADFYYPVLGHGFPTYEYDYWGQGTQVTVSS,low polyreactivity
2,QVQLVDSGGGLVQAGGSLRLSCAASGYTFRYYAMGWYRQEPGKERELVAAITRSGTTYYADSVKGRFTISRDNAKNTVYIQMNSLKTDDTAVYYCNTRVTGNRLGYYYWGQGTQVTVSS,high polyreactivity
3,QVQLVDSGGGLVQAGGSLRLSCADSGSIFSRNTMGWYRQAPGKERELVAGISSSGSRTYYADSVKGRFTISRDNAKNTVYLQMNSLKPEDTAFYYCAAGSQRRYYHTNCDSFNYSGQGTQVTVSS,low polyreactivity
4,QVQLVDSGGGLVQAGGSLRLSCADSGSINGNYVMGWYRQAPRKERELVAAIRWTGGSTYYADTVKGRFTISRDNAKNTVYLQMNSLKPEDTAVYYCNAESTYYPSGEDYWGQGTQVNVSS,high polyreactivity
5,QVQLVDSGGGLVQAGGSLRLSCAGSGLTFRFYAMVWYRQAPGKEREFVAAISSSGTTTYYADSVKGRFTISRDNAKNTVYLQMNSLKPEDTADFYCNKEYTTYGYDLEYDFWGQGTQVTVSS,low polyreactivity
6,QVQLVDSGGGLVQAGGSLRLSCGASGLIFKYNVMGWYRQAPGKERELVAAITWGGTRTYYADSVKGRFTISRDTAKNTVYLQMNSLKPEDTAVYYCAVRSARIERNYWGQGTQVTVSS,low polyreactivity
7,QVQLVDSGGGLVQAGGSLRLSCPASGGIFGEYAMGWYRPAPGKEMELVAAINWSGGSTYYADSVKGRFTISRDNAKNTVYLQMNSLKPEDTAVYYCAADRGYPGNVDYWGQGSQVTVSS,low polyreactivity
8,QVQLVDSGGGLVQAGGSLRLSCPASGSIIPYNALGWYRQAPGKERELVATISSGGSTNYADSVKGRFTISRDNAKNTVYFQMNSLKPEDTAVYYCAADVIVFYYAPNYWGDIEYGYWGQGTQVTVSS,low polyreactivity
9,QVQLVDSGGGLVQAGGSLRLSCPASGSTFLVYAMGWYRQAPGKERELVAVITYSTVRTYYADSVKGRFTISRDNAKNTVYLQMNSLKPEDTAVYHCNADKEFAVLGQGMDFWGQGTQVTVSS,low polyreactivity
10,QVQLVDSGGGLVQAGGSLRLSCSASGIIFRYYTMVWYRQDPGKERELVASISRSGGNTYYADSVKGRFTISRDNAMNTVYLQMNSLKPEDTAVYYCAARRHQKYQESNYWGQGTQVTVSS,high polyreactivity
11,QVQLVDSGGGLVQAGGSLRLSFAASGNIIYQNAMGWDRQAPGKERELVAAISSGGSTNYADSVKGRFTISRDNAKITVYLQMNSLKPEDTAVYYCAAEHWTESVWDDSWGQGTQVTVSS,low polyreactivity
12,QVQLVDSGGGLVQAGGSLRLSSAASGRIFNRYAMGWYRQAPGKERELVAAITRGTRTNYADSVKGRFTISRDNAKNTVYLQMNSLKPEDTAVYYCAAAYGRGSDSDYWGQGTQVTVSS,high polyreactivity
13,QVQLVDSGGGLVQAGGSLRLSSPASGIIFTRYTMGCYSQEPGKERELVAAITTSGGRTYYADSVKGRFTISRDNAKNTVYLPMNSLKPEDTAVYYCDVSGHARYDYWGQGTQVTVSS,high polyreactivity
14,QVQLVDSGGGLVQAGGSLSLICAASGSNFRYYAMGWYRKAPGKERELVDAINWSGGSTYYADSVKGRFTSSRDNAKNTVYLQMNSLKPEHTAVYSCNAVGWRSLHRDYWGQGTQVTLSS,high polyreactivity
15,QVQLVDSGGGLVQAGGSLSLSCAASGRTFVTNAMGWYRQAPGKERELVAAISGNGGSTYYADSVKGRFTISRDNAKNTVYLQMNSLKPEDTAVYYCNKDYHVRYYYWGQGTQVTVSS,low polyreactivity
16,QVQLVDSGGGLVQARVNLRLSCRATGIIFYLYVMGWYRQSPGKDRELVAVISYSGDDTYYADSVQVRFTISRDNAKNTVYLQMISLKPEDTAVYYCADDSIGYGVDYWGQGTQVTVSS,low polyreactivity
17,QVQLVDSGGGLVQAVGSLRLSCAASGRTFRRYAMGWYRQAPGKERELVAAISRSGGSTYYADSVNGRFTISRDNAKNTVYLQMNSLKPEDTAVYYCAAGIWSKLVEPFDYCGQGTQVTVSS,high polyreactivity
18,QVQLVDSGGGLVQAVGSLRLSCAASGRTLGAYAMGWYRQAPGKEREFVARITYGGRTFYADSVKGRFTISRDNAKNTVYLQMNSLKPEDTAVYYCATKLPYRWYDYWGQGTQVTVSS,high polyreactivity
19,QVQLVDSGGGLVQEGGSLRLSCAASGNIFQTYDMGWYRQAHGKEREFVATITSSCARTYYADSVKGRFTISRDNAKNTVYVQMNCLKPEDTAVDYCNRVWSYANGYWGHGTQVTVSS,high polyreactivity
20,QVQLVDSGGRLVHAGGSLRLSCAASGRTIYRNAMGLYRQAPGKERELVAAISSDDSTNYSDSVKGRFTISRDNAKNTVYFQMNSLKPEDTAVYYCNADYYYGYDYDYWGQGSQVTVSS,low polyreactivity
